How the values were obtained:
TASK3 [1] = target: TASK3 (UniProt Q9NPC2); experiment: fluorescence polarisation; 2D fluorescence anisotropy titrations of 14-3-3 at varying concentrations of fusicoccin-A, 10 nM labelled TASK3; fitted here with a ternary equilibrium model, KD,I fixed at 4.05 μM; data (Dataset S2) published before
TASK3 [2] = target: TASK3 (UniProt Q9NPC2); experiment: fluorescence polarisation; fluorescence anisotropy; 14-3-3 titrated in the presence of 10 nM labelled TASK3; KD fitted here with a one-to-one equilibrium model; data (Dataset S1) from earlier work

UniProt Q9NPC2, sequence (Q9NPC2 whole entry): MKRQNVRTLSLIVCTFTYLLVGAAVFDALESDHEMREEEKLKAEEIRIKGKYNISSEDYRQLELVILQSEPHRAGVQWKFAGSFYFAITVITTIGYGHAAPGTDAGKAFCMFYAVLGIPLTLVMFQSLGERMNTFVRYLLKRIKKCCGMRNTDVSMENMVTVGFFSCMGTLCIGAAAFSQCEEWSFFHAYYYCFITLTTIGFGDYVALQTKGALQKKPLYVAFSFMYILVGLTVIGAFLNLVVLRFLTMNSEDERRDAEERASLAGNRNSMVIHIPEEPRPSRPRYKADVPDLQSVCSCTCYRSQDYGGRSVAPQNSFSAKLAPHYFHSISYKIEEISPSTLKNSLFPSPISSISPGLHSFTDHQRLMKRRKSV

14-3-3 protein (from UniProt P31947 1-248) (natural protein)
cooperativity factor α with fusicoccin-A (TASK3 [1]): 1340 | Kd (TASK3 [2]): 4.05 µM

From PMC10074561
